# Reference: patent US20220265711A1 (NANJING LEGEND BIOTECH, published 2022)
# B1: Tregalizumab (antibody, V domains shown)
# VH: EEQLVESGGGLVKPGGSLRLSCAASGFSFSDCRMYWLRQAPGKGLEWIGVISVKSENYGANYAESVRGRFTISRDDSKNTVYLQMNSLKTEDTAVYYCSASYYRYDVGAWFAYWGQGTLVTVSS
# VL: DIVMTQSPDSLAVSLGERATINCRASKSVSTSGYSYIYWYQQKPGQPPKLLIYLASILESGVPDRFSGSGSGTDFTLTISSLQAEDVAVYYCQHSRELPWTFGQGTKVEIKR
# notes: also called Tregalizumab monoclonal antibody
# B2: CAR No. 3 (anti-CD4 chimeric antigen receptor, Tregalizumab VH/VL) (other)
# chain: EEQLVESGGGLVKPGGSLRLSCAASGFSFSDCRMYWLRQAPGKGLEWIGVISVKSENYGANYAESVRGRFTISRDDSKNTVYLQMNSLKTEDTAVYYCSASYYRYDVGAWFAYWGQGTLVTVSSAGGGGSGGGGSGGGGSDIVMTQSPDSLAVSLGERATINCRASKSVSTSGYSYIYWYQQKPGQPPKLLIYLASILESGVPDRFSGSGSGTDFTLTISSLQAEDVAVYYCQHSRELPWTFGQGTKVEIKRTTTPAPRPPTPAPTIASQPLSLRPEACRPAAGGAVHTRGLDFACDIYIWAPLAGTCGVLLLSLVITLYCKRGRKKLLYIFKQPFMRPVQTTQEEDGCSCRFPEEEEGGCELRVKFSRSADAPAYKQGQNQLYNELNLGRREEYDVLDKRRGRDPEMGGKPRRKNPQEGLYNELQKDKMAEAYSEIGMKGERRRGKGHDGLYQGLSTATKDTYDALHMQALPPR
# B3: Ibalizumab (antibody, V domains shown)
# VH: QVQLQQSGPEVVKPGASVKMSCKASGYTFTSYVIHWVRQKPGQGLDWIGYINPYNDGTDYDEKFKGKATLTSDTSTSTAYMELSSLRSEDTAVYYCAREKDNYATGAWFAYWGQGTLVTVSS
# VL: DIVMTQSPDSLAVSLGERVTMNCKSSQSLLYSTNQKNYLAWYQQKPGQSPKLLIYWASTRESGVPDRFSGSGSGTDFTLTISSVQAEDVAVYYCQQYYSYRTFGGGTKLEIKR
# notes: also called Ibalizumab monoclonal antibody
# B4: CAR No. 4 (anti-CD4 chimeric antigen receptor, scFv derived from SK3) (other)
# chain: QVQLQQSGPELVKPGASVKMSCKASGYTFTDYVINWVKQRTGQGLEWIGETYTGSGSSYYNEKFKDKATLTVDKASNIAYMQLSSLTSEDSAVYFCARRGKGTGFAFWGQGTLVTVSAGGGGSGGGGSGGGGSDIVLTQSPASLAVSLGQRATISCKASQSVDYDGDSYMNWYQQKPGQPPKLLIYAASNLESGIPARFTGSGSGTDFTLNIHPVEEEDTATYYCQQSYEDPPTFAGGTNLEIKTTTPAPRPPTPAPTIASQPLSLRPEACRPAAGGAVHTRGLDFACDIYIWAPLAGTCGVLLLSLVITLYCKRGRKKLLYIFKQPFMRPVQTTQEEDGCSCRFPEEEEGGCELRVKFSRSADAPAYKQGQNQLYNELNLGRREEYDVLDKRRGRDPEMGGKPRRKNPQEGLYNELQKDKMAEAYSEIGMKGERRRGKGHDGLYQGLSTATKDTYDALHMQALPPR
# B5: CAR No. 6 (anti-CD4 chimeric antigen receptor) (other)
# chain: QIQLVQSGPELKKPGETVKISCKASGYTFTNYGMNWVKQAPGKGLKCMGWINTNTGEPTYAEEFKGRFAFSLETSATTAFLQINNLKDEDTATYFCARLGLYYDYGYYAMDYWGQGASVTVSSGGGGSGGGGSGGGGSNIVLTQSPASLAVSLGQRATISCRASESVDSYGNSFMHWYQQKPGQPPKLFIYLASNLESGVPARFSGSGSRTDFTLTIDPVEADDAATYYCQQNNEDPYTFGGGTKLEIKTTTPAPRPPTPAPTIASQPLSLRPEACRPAAGGAVHTRGLDFACDIYIWAPLAGTCGVLLLSLVITLYCKRGRKKLLYIFKQPFMRPVQTTQEEDGCSCRFPEEEEGGCELRVKFSRSADAPAYKQGQNQLYNELNLGRREEYDVLDKRRGRDPEMGGKPRRKNPQEGLYNELQKDKMAEAYSEIGMKGERRRGKGHDGLYQGLSTATKDTYDALHMQALPPR
# Assays:
# [1] = target: T1, hybrid CD4 protein: mouse CD4 backbone with human CD4 Domain 1 (human; mouse, UniProt P06332 129-457, limits assumed); assay: flow cytometry on HEK293-6E cells expressing mouse CD4 with human CD4 domain 1, against isotype control
# T1 construct: Transiently expressed on HEK-293 cells from the pcDNA3.4 vector; also called D1
# Excerpt: (§1) CD4 is a member of immunoglobulin superfamily. It contains four extracellular immunoglobulin domains, Domain 1 to 4 from distal to proximal to cell membrane. The four CD4 extracellular domains and its intracellular domain were named D1-D5 and were expressed transiently with a mouse CD4 backbone in HEK-293 cells. The three antibodies were used to detect human CD4 D1-D5 expression by flow cytometry on these 293 cells.
# [2] = target: T2, HEK293-6E/domain5 (Mus musculus;Homo sapiens, UniProt P06332;P01730); assay: flow cytometry on HEK293-6E cells expressing mouse CD4 with human CD4 domain 5 (intracellular), against isotype control
# T2 construct: full-length backbone without its own intracellular domain;single domain inserted in the mouse backbone; transiently expressed on HEK-293 cells; the human part is intracellular, the extracellular part is mouse CD4; also called hybrid CD4 protein: mouse CD4 backbone with human CD4 intracellular domain; D5
# Excerpt: as §1
# [3] = target: human CD4 (human, UniProt P01730 26-458); assay: cell-based or functional assay
# T2 sequence (P06332 other isoform, or with tags, fused parts or gaps limits assumed): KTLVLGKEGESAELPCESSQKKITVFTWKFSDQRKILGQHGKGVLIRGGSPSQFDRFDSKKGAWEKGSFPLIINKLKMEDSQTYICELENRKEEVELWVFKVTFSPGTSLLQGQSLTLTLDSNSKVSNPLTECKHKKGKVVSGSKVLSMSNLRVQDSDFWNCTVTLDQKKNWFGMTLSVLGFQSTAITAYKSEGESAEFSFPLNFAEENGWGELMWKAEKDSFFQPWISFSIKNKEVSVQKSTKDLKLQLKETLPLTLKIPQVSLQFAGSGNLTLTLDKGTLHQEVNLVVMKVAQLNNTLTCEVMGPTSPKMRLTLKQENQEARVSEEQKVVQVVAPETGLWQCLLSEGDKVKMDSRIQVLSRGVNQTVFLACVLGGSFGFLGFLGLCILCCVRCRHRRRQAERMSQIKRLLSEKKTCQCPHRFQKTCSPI
# T1 sequence (P06332 other isoform, or with tags, fused parts or gaps limits assumed): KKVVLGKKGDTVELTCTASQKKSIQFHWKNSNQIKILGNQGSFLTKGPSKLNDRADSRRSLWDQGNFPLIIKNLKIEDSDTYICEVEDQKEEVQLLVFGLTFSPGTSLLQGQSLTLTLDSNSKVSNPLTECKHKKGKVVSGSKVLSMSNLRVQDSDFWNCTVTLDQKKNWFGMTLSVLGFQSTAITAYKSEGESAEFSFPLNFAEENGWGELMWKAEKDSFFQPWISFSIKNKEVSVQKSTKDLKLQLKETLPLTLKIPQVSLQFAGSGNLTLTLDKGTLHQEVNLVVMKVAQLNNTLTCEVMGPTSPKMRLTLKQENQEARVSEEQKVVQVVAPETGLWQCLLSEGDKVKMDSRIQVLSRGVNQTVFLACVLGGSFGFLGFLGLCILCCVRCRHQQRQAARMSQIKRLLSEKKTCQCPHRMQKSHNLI
Binder,binding result [1],binding result [2],CD4+ cells in the effector population after 24 h co-culture (18.9% in UNT control) [3] [%]
B1,no binding,no binding,–
B2,–,–,12.5
B3,no binding,no binding,–
B4,–,–,0
B5,–,–,13.1
